Tested on: Bacillus subtilis
Assay: cleaved RNA product abundance (RNA/gDNA barcode ratio) relative to median wild-type variant (ratio to wild type); higher = more accumulation of the downstream cleavage product
Procedure, shortened: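 Cleaved product abundance was measured with barcoded reporter mRNAs (truncated aprE or tetM) carrying mutagenized RNase Y cleavage-site windows in the B. subtilis chromosome. Cultures in LB at 37°C grew from OD600 0.0003 to 0.3. Gel-selected cleaved RNA was reverse transcribed and barcode-sequenced with genomic DNA barcodes, and the RNA:gDNA barcode ratio per construct was scaled to the median construct bearing the unmutated site.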

[1] = experiment (reporter, strain, medium): exp 8a: truncated aprE reporter, strain BJT201 with 2% xylose (RNase J1 expressed), cleavage site: glnRA (positions -5 to +31 mutated)
[2] = experiment (reporter, strain, medium): exp 4a: truncated aprE reporter, strain BJT201 with 2% xylose (RNase J1 expressed), cleavage site: cggR-gapA (positions -7 to +36 mutated)
[3] = experiment (reporter, strain, medium): exp 2b: truncated aprE reporter, strain BJT200, cleavage site: cggR-gapA (positions -7 to +36 mutated)
[4] = experiment (reporter, strain, medium): exp 6: tetM reporter, strain 168, cleavage site: cggR-gapA (positions -7 to +36 mutated)

Row | Sequence | cleaved RNA product abundance [2] | cleaved RNA product abundance [3] | other results
1 | CGACATGTCCCGCTTCTTTCATTAATCCATTAGAAACTGTTTTGCTATATAGATTTACCTTTTAAGAGGAGGAAT | – | – | cleaved RNA product abundance [1]: 0.302
2 | ACAGACGAAGGAGCCGCAAAGAAGTAATTAAGGGATGAATAATCCCTAAATATAAATATCTCTCACTTATTTAAA | 0.234 | – | –
3 | ACAGACGAAGGAGCCGCAAAGAAGTTATTATGGGATGAATAATCCCTCAATATAATTATCTCTCACTTATTTAAA | 0.294 | – | –
4 | ACAGACGAAGGAGCCGCAACGAAGTTATAAAGGGATGAATAATCCCTCAATATAAATATCTCTCACTTATTTAAA | 0.54 | – | –
5 | ACAGACGAAGGAGCCGCAAAGAAGTTATTAAGGGATTAATAATCCCTCTATATAAATATCTCTCACTTATTTAAA | 0.547 | – | –
6 | ACAGACGAAGGAGCCGCAAAGAAGTTAATAAGGGATGAATAGTCCCTCAATATAAATATCTCTCACTTATTTAAA | 0.263 | – | –
7 | ACAGACGAAGGAGCCGCAAAGAAGTTACAAAGGGATGAATAATCCCTCAATATAAATATCTCTCACTTATTTAAA | 0.257 | – | –
8 | CGACATGTCCCGCTTCTTTCATTAATCCGTTACCATCTGTTTTGCTATATACATTTACCTTTTAAGAGGAGGAAT | – | – | cleaved RNA product abundance [1]: 0.163
9 | ACAGACGAAGGAGCCGCAAAGAAGTTATTAAGGGATCTATAATCCCTCAATATAAATATCTCTCACTTATTTAAA | 0.87 | – | –
10 | ACAGACGAAGGAGCCGCAAAGAAGTTATTAAGGGATTAATAAACCCTCAATATAAATATCTCTCACTTATTTAAA | 0.575 | 0.559 | –
11 | CGACATGTCCCGCTTCTTTCATTAATCCGTTAGCAACTGTTTTACTCTATACATTTACCTTTTAAGAGGAGGAAT | – | – | cleaved RNA product abundance [1]: 0.597
12 | CGACATGTCCCGCTTCTTTCATTAATCCGTTAGTAACTGTTTTGCTACATACATTTACCTTTTAAGAGGAGGAAT | – | – | cleaved RNA product abundance [1]: 0.318
13 | CGACATGTCCCGCTTCTTTCATTAATCCGTTAGCCAGTGTTTTGCTATATACATTTACCTTTTAAGAGGAGGAAT | – | – | cleaved RNA product abundance [1]: 0.333
14 | ACAGACGAAGGAGCCGCAAAGAAGTTATTAAGGGTTGAATAATCACTCAATATAAATATCTCTCACTTATTTAAA | 0.127 | 0.098 | –
15 | ACAGACGAAGGAGCCGCAAAGAAGTTATTAAGGGATGATAAATCCCTCAATATAAATATCTCTCACTTATTTAAA | 0.853 | 0.648 | –
16 | ACAGACGAAGGAGCCGCAAAGAAGTTATTAAGGGATGAATGATCCTTCAATATAAATATCTCTCACTTATTTAAA | 0.258 | – | –
17 | ACAGACGAAGGAGCCGCAAACAAGTTATTAAGGGATGAATAATGCCTCAATATAAATATCTCTCACTTATTTAAA | 0.0993 | – | –
18 | CGACATGTCCCGCTTCTTTCATTAATCCGTTAGCTATTGTTTTGCTATATACATTTACCTTTTAAGAGGAGGAAT | – | – | cleaved RNA product abundance [1]: 0.432
19 | ACAGACGAAGGAGCCGCAAAGAAGTTATTAAGGGATGAATAATCCCGCATTATAAATATCTCTCACTTATTTAAA | 0.101 | – | –
20 | ACAGACGAAGGAGCCGCACAGAAGATATTAAGGGATGAATAATCCCTCAATATAAATATCTCTCACTTATTTAAA | 0.364 | – | –

Row | Sequence | cleaved RNA product abundance [2] | cleaved RNA product abundance [3] | other results
21 | ACAGACGAAGGAGCCGCAAAAAAGTTATTAAGGGATGAATAATCCCTCCATATAAATATCTCTCACTTATTTAAA | 0.348 | – | –
22 | ACAGACGAAGGAGCCGCAAAGAAGTTATTAAGGGATGAATAATTACTCAATATAAATATCTCTCACTTATTTAAA | 0.137 | 0.0971 | cleaved RNA product abundance [4]: 0.11
23 | ACAGACGAAGGAGCCGCAAAGAAGTTATTAAGGTATTAATAATCCCTCAATATAAATATCTCTCACTTATTTAAA | 0.169 | 0.0984 | –
24 | CGACATGTCCCGCTTCTTTCATTAATCCGTCAGCAAATGTTTTGCTATATACATTTACCTTTTAAGAGGAGGAAT | – | – | cleaved RNA product abundance [1]: 0.398
25 | CGACATGTCCCGCTTCTTTCATTAATCCGTTAGCAACTGTTTTGCTATATACATTTACTTTTTAAGAGGAGGAAT | – | – | cleaved RNA product abundance [1]: 1.23
26 | ACAGACGAAGGAGCCGCAAAGAAGTTATCAAGGGATGAATAATCCCTCAATATAAATATCTCTCACTTATTTAAA | 0.385 | 0.27 | cleaved RNA product abundance [4]: 0.34
27 | CGACATGTCCCGCTTCTTTCATTAATCTGTTAGCAACTGTTTTGCTATATACATTGACCTTTTAAGAGGAGGAAT | – | – | cleaved RNA product abundance [1]: 0.991
28 | ACAGACGAAGGAGCCGCAAAGAAGTTATTAAGGGATGAATAATCCCTCCATATAAATTTCTCTCACTTATTTAAA | 0.23 | – | –
29 | ACAGACGAAGGAGCCGCAAAGAAGCTATTAAGGCATGAATAATCCCTCAATATAAATATCTCTCACTTATTTAAA | – | 0.0626 | –
30 | ACAGACGAAGGAGCCGCAAAGAAGTTATTAATGGATGAATAATCACTCAATATAAATATCTCTCACTTATTTAAA | 0.141 | 0.106 | –
31 | CGACATGTCCCGCTTCTTTCATTAATCCGTTAGCACCTGTTTTGCTATATATATTTACCTTTTAAGAGGAGGAAT | – | – | cleaved RNA product abundance [1]: 1.44
32 | ACAGACGAAGGAGCCGCAAAGAAGTTTTTAAGGGATGAATAATCACTCAATATAAATATCTCTCACTTATTTAAA | 0.0945 | 0.125 | –
33 | ACAGACGAAGGAGCCGCAAATAAGTTATTAACGGATGAATAATCCCTCAATATAAATATCTCTCACTTATTTAAA | 0.157 | 0.113 | –
34 | CGACATGTCCCGCTTCTTTCATTAATCCGTTAGCAACTGATTTGCTATATACATTTACCCTTTAAGAGGAGGAAT | – | – | cleaved RNA product abundance [1]: 0.843
35 | ACAGACGAAGGAGCCGCAAAGAAGTTATTCAGGGATGAATAATTCCTCAATATAAATATCTCTCACTTATTTAAA | 0.513 | – | –
36 | ACAGACGAAGGAGCCGCAAAGAAGTTATTAAGGGATGAATACTCCCACAATATAAATATCTCTCACTTATTTAAA | 0.139 | – | –
37 | ACAGACGAAGGAGCCGCAAAGAAGTTATTAAGGAAAGAATAATCCCTCAATATAAATATCTCTCACTTATTTAAA | 0.0978 | – | –
38 | ACAGACGAAGGAGCCGCAAAGAAGTTATTAAGGGATGAATTATCCCTCTATATAAATATCTCTCACTTATTTAAA | 0.3 | – | –
39 | ACAGACGAAGGAGCCGCAAAGAAGTTATTAAGGGATTTATAATCCCTCAATATAAATATCTCTCACTTATTTAAA | 0.931 | – | –
40 | ACAGACGAAGGAGCCGCGAAGAAGTTATGAAGGGATGAATAATCCCTCAATATAAATATCTCTCACTTATTTAAA | 0.248 | – | –

Row | Sequence | cleaved RNA product abundance [2] | cleaved RNA product abundance [3] | other results
41 | ACAGACGAAGGAGCCGCAAAGAAGTTATTAAGGGATGAATCATCCCACAATATAAATATCTCTCACTTATTTAAA | 0.192 | 0.21 | –
42 | ACAGACGAAGGAGCCGCAAAGAAGTTATTAAGGGATGAATAATCCCTCAATATAAATATCTCTCACTTATTAAAG | 0.971 | 0.94 | –
43 | ACAGACGAAGGAGCCGCAAAGAAGTTATTAAAGGATGAATAATCCCTCAATAGAAATATCTCTCACTTATTTAAA | 0.107 | 0.111 | –
44 | CGACATGTCCCGCTTCTTTCATTAATCCGTTAGCAACTGAGTTGCTATATACATTTACCTTTTAAGAGGAGGAAT | – | – | cleaved RNA product abundance [1]: 0.261
45 | CGACATGTCCCGCTTCTTTCATTAATCCTTTAGCAACTGTTTTGCTATATACATTTATCTTTTAAGAGGAGGAAT | – | – | cleaved RNA product abundance [1]: 0.826
46 | ACAGACGAAGGAGCCGCAAAGAAGTTATTTAGGGATGAATAATCCTTCAATATAAATATCTCTCACTTATTTAAA | 0.531 | – | –
47 | ACAGACGAAGGAGCCGCAAAGAAGTTATTAAGGGATGAATAATCCCTCAATATAAATAGCTCTCACTTATTTAAA | 0.616 | 0.637 | cleaved RNA product abundance [4]: 0.688
48 | ACAGACGAAGGAGCCGCAAAGAAGTTAATAAGGGATGAATAATCCGTCAATATAAATATCTCTCACTTATTTAAA | – | 0.177 | –
49 | ACAGACGAAGGAGCCGCAAAGAAGTTATAAAGGGATGAATAATCCCTCAATATAAATAACTCTCACTTATTTAAA | 0.424 | – | –
50 | CGACATGTCCCGCTTCTTTCATTAATCTGTTAGCAACTGTTTAGCTATATACATTTACCTTTTAAGAGGAGGAAT | – | – | cleaved RNA product abundance [1]: 0.727
51 | ACAGACGAAGGAGCCGCAAAGAAGTTATTAAGGAATGAATAATCCCTCAATATAAAGATCTCTCACTTATTTAAA | 0.0766 | – | –
52 | ACAGACGAAGGAGCCGCAAATAAGTTATTAAGGGATGAATAATCCCTCAATATACATATCTCTCACTTATTTAAA | 0.64 | 0.727 | –
53 | ACAGACGAAGGAGCCGCATAGAAGTTATTCAGGGATGAATAATCCCTCAATATAAATATCTCTCACTTATTTAAA | 0.947 | – | –
54 | ACAGACGAAGGAGCCGCAAAGAAGTAATTAAGGGATGAATAATCCCTCAATATAATTATCTCTCACTTATTTAAA | 0.199 | 0.151 | –
55 | ACAGACGAAGGAGCCGCAAGGAAGTTATTAAGGGATGAATAATCCCTCAATATAAAAATCTCTCACTTATTTAAA | 0.35 | – | –
56 | CGACATGTCCCGCTTCTTTCATTAATCCGTCCGCAACTGTTTTGCTATATACATTTACCTTTTAAGAGGAGGAAT | – | – | cleaved RNA product abundance [1]: 0.264
57 | ACAGACGAAGGAGCCGCAAAGAAGTTATTAAAGGATGAATAATGCCTCAATATAAATATCTCTCACTTATTTAAA | 0.087 | 0.118 | –
58 | CGACATGTCCCGCTTCTTTCATTAATTCGTTAGCAACTGTTTTGTTATATACATTTACCTTTTAAGAGGAGGAAT | – | – | cleaved RNA product abundance [1]: 0.602
59 | ACAGACGAAGGAGCCGCAGAAAAGTTATTAAGGGATGAATAATCCCTCAATATAAATATCTCTCACTTATTTAAA | 1.24 | 1.14 | –
